Measurements reported in US20160137728A1 (ROCHE DIAGNOSTICS OPERATIONS, published 2016).
Ends that are not written are not given here.

B1: MAb<h-IGF-1>M-10.07.09 (antibody, V domains shown)
VH: QVQLQQSGAELVRPGSSVKISCKASGYAFSSYWMNWVKQRPGQGLEWIGQIYPGDGDTNHNGKFKGKATLTADKSSSTVYMQLSSLTSEDSAVYFCARSGDYYGKDYWGQGTTLTVSS
VL: DIVLTQTPPSLPVNMGQKATISYKATKSLLNTDGYTYMHWNQQKPGQPPKLLIYLVSNRESGVPDRFSGSGSGTDFTLNINTVEEEDAATYYCHHSNELPHTFGAGTKLEIK
notes: Mouse monoclonal antibody from a hybridoma, raised with Thermus thermophilus SlyD-IGF-1(74-90); In SPR it was captured from clone culture supernatant through anti-mouse IgG Fc; also called MAb 10.07.09; M-10.7.9
B2: MAb<h-IGF-1>M-11.11.17 (antibody, V domains shown)
VH: QVQLQQSGAELVRPGSSVKISCKASGYAFSNLWMNWVKQRPGQGLEWIGQIYPGDGDTNYYGDFKGKATLTADSSSSTAYMQLSRLTSEDSAVYFCARIGYYGMDYWGQGTSVTVSS
VL: DVVLTQTPLSLPVNIGDEASISCKSTKSLLSSDGLTYLDWYLQKPGQSPQVLIYLVSNRFSGVPDRFSGSGSGTDFTLKISRVEAEDLGVYYCFQSNYLPTFGAGTKLELK
notes: Mouse monoclonal IgG from a hybridoma, raised with Thermus thermophilus SlyD-IGF-1(74-90); also called MAb 11.11.17; mAb<IGF1>M-11.11.17

Legend:
[1] = target: T1, human insulin-like growth factor-1 (mature, recombinant native IGF-1, Peprotech Cat.#100-11) (human, UniProt P05019 49-118); assay: ELISA, clone culture supernatant
T1 construct: In SPR it was the analyte in solution; also called native recombinant IGF-1; human IGF-1

[2] = target: T1, human insulin-like growth factor-1 …; assay: SPR (BIAcore T200), 25 C, antibody captured, antigen in solution
Protocol: (§1) The BIAcore T200 System was driven under the control software V1.1.1. Polyclonal rabbit IgG antibody <IgGFCγM>R (Jackson ImmunoResearch Laboratories Inc.) was immobilized at 30 μg/ml in 10 mM sodium acetate buffer (pH 4.5) at 6500 RU on the flow cells 1, 2, 3, and 4, respectively, via EDC/NHS chemistry according to the manufacturer's instructions. Finally, the sensor surface was blocked with a 1 M ethanolamine solution. The complete experiment was performed at 25° C.
(§2) The clone culture supernatants containing the respective antibodies at approx. 40 nM were captured for 2 min at a flow rate of 5 μl/min on the <IgGFCγM>R surface. As analytes in solution the recombinant native IGF-1 (Peprotech Inc. Cat.#100-11), recombinant native IGF-2 (Peprotech Inc. Cat.#100-12), Thermus thermophilus SlyD-IGF-1(74-90), recombinant wild-type Thermus thermophilus SlyD, recombinant Thermus thermophilus SlyD-ΔIF, recombinant wild-type Thermococcus gammadurans SlyD, recombinant Thermococcus gammadurans SlyD-IGF-2 (53-65) fusion polypeptides were used. Thermus thermophilus SlyD-ΔIF is solely the FKBP domain of Thermus thermophilus SlyD lacking the IF domain. Thermococcus gammadurans SlyD-IGF-2(53-65) was used to counterscreen and investigate the specificity for the IGF-1 hairpin in contrast to the IGF-2 hairpin insertion. The respective analytes were injected at different concentration steps from 90 nM, 30 nM, 10 nM, 3.3 nM, 1.1 nM and 0 nM. The association phase was monitored for 3 min. at a flow rate of 100 μl/min. The dissociation was monitored for 10 min. at a flow rate of 100 μl/min. The system was regenerated using a 10 mM glycine buffer (pH 1.7). Kinetics were evaluated using the BIAcore Evaluation Software.

SEQ ID NO 43 = target: T2, SEQ ID NO 43 (human, also: covalently linked to cellulose); assay: CelluSpots peptide array, chemiluminescence
T2 construct: Spot on the CelluSpots peptide array; also called F-Y-F-G-N-K-P-T-G-Y-G-S-S-S-R
T2 peptide: FYFGNKPTGYGSSSR
Protocol: (§3) Each peptide synthesized was shifted by one amino acid, i.e. it had 14 amino acids overlap with the previous and the following peptide, respectively. For preparation of the peptide arrays the Intavis CelluSpots™ technology was employed. In this approach, peptides are synthesized with an automated synthesizer (Intavis MultiPep RS) on modified cellulose disks which are dissolved after synthesis. The solutions of individual peptides covalently linked to macromolecular cellulose are then spotted onto coated microscope slides. The CelluSpots™ synthesis was carried out stepwise utilizing 9-fluorenylmethoxycarbonyl (Fmoc) chemistry on amino-modified cellulose disks in a 384-well synthesis plate. In each coupling cycle, the corresponding amino acids were activated with a solution of DIC/HOBt in DMF. Between coupling steps un-reacted amino groups were capped with a mixture of acetic anhydride, diisopropylethyl amine and 1-hydroxybenzotriazole. Upon completion of the synthesis, the cellulose disks were transferred to a 96-well plate and treated with a mixture of trifluoroacetic acid (TFA), dichloromethane, triisoproylsilane (TIS) and water for side chain deprotection. After removal of the cleavage solution, the cellulose bound peptides are dissolved with a mixture of TFA, TFMSA, TIS and water, precipitated with diisopropyl ether and re-suspended in DMSO. The peptide solutions were subsequently spotted onto Intavis CelluSpots™ slides using an Intavis slide spotting robot.
(§4) For epitope analysis, the slides prepared as described above were washed with ethanol and then with Tris-buffered saline (TBS; 50 mM Tris, 137 mM NaCl, 2.7 mM KCl, pH 8) before blocking for 16 h at 4° C. with 5 mL 10× Western Blocking Reagent (Roche Applied Science), 2.5 g sucrose in TBS, 0.1% Tween 20. The slide was washed with TBS and 0.1% Tween 20 and incubated afterward with 1 µg/mL of the corresponding IGF1 antibodies in TBS and 0.1% Tween 20 at ambient temperature for 2 h and subsequently washed with TBS+0.1% Tween 20. For detection, the slide was incubated with anti-rabbit/anti-mouse secondary HRP-antibody (1:20000 in TBS-T) followed by incubation with chemiluminescence substrate luminol and visualized with a Lumilmager (Roche Applied Science). ELISA-positive SPOTs were quantified and through assignment of the corresponding peptide sequences the antibody binding epitopes were identified.

SEQ ID NO 44 = target: T3, SEQ ID NO 44 (human, also: covalently linked to cellulose); assay: CelluSpots peptide array, chemiluminescence
T3 construct: Spot on the CelluSpots peptide array; also called Y-F-G-N-K-P-T-G-Y-G-S-S-S-R-R
T3 peptide: YFGNKPTGYGSSSRR
Protocol: as §3, §4

SEQ ID NO 45 = target: T4, SEQ ID NO 45 (human, also: covalently linked to cellulose); assay: CelluSpots peptide array, chemiluminescence
T4 construct: Spot on the CelluSpots peptide array; also called F-G-N-K-P-T-G-Y-G-S-S-S-R-R-A
T4 peptide: FGNKPTGYGSSSRRA
Protocol: as §3, §4

SEQ ID NO 46 = target: T5, SEQ ID NO 46 (human, also: covalently linked to cellulose); assay: CelluSpots peptide array, chemiluminescence
T5 construct: Spot on the CelluSpots peptide array; also called G-N-K-P-T-G-Y-G-S-S-S-R-R-A-P
T5 peptide: GNKPTGYGSSSRRAP
Protocol: as §3, §4

SEQ ID NO 47 = target: T6, SEQ ID NO 47 (human, also: covalently linked to cellulose); assay: CelluSpots peptide array, chemiluminescence
T6 construct: Spot on the CelluSpots peptide array; also called N-K-P-T-G-Y-G-S-S-S-R-R-A-P-Q
T6 peptide: NKPTGYGSSSRRAPQ
Protocol: as §3, §4

SEQ ID NO 48 = target: T7, SEQ ID NO 48 (human, also: covalently linked to cellulose); assay: CelluSpots peptide array, chemiluminescence
T7 construct: Spot on the CelluSpots peptide array; also called K-P-T-G-Y-G-S-S-S-R-R-A-P-Q-T
T7 peptide: KPTGYGSSSRRAPQT
Protocol: as §3, §4

SEQ ID NO 49 = target: T8, SEQ ID NO 49 (human, also: covalently linked to cellulose); assay: CelluSpots peptide array, chemiluminescence
T8 construct: Spot on the CelluSpots peptide array; also called P-T-G-Y-G-S-S-S-R-R-A-P-Q-T-G
T8 peptide: PTGYGSSSRRAPQTG
Protocol: as §3, §4

SEQ ID NO 50 = target: T9, SEQ ID NO 50 (human, also: covalently linked to cellulose); assay: CelluSpots peptide array, chemiluminescence
T9 construct: Spot on the CelluSpots peptide array; also called T-G-Y-G-S-S-S-R-R-A-P-Q-T-G-G
T9 peptide: TGYGSSSRRAPQTGG
Protocol: as §3, §4

[3] = target: T10, Thermus thermophilus wild type SlyD polypeptide (Thermus thermophilus); assay: ELISA, clone culture supernatant
T10 construct: Used as negative control; also called wild-type Thermus thermophilus SlyD; Thermus thermophilus-SlyD
T10 chain: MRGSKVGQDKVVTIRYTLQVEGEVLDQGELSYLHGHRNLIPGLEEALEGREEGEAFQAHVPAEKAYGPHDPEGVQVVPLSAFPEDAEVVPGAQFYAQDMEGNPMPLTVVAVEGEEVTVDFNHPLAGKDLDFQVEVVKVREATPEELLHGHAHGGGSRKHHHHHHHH

[4] = target: T11, Thermococcus gammatolerans wild-type SlyD polypeptide (Thermococcus gammatolerans); assay: SPR (BIAcore T200), 25 C, antibody captured, antigen in solution
T11 construct: also called wild-type Thermococcus gammadurans SlyD; native SlyD from Thermococcus gammatolerans
T11 chain: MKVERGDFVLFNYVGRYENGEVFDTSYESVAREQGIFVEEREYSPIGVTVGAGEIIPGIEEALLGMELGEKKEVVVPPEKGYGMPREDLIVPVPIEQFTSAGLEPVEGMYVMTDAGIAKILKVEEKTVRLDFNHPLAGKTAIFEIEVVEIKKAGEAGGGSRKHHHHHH
Protocol: as §1, §2

[5] = target: T12, Thermococcus gammatolerans SlyD-IGF-2(53-65) fusion polypeptide; assay: as above
T12 construct: Human IGF-2 amino acids 53-65 inserted into the Thermococcus gammatolerans SlyD scaffold, with GS spacer and hexahistidine tag; also called Thermococcus gammadurans SlyD-IGF-2 (53-65)
T12 chain: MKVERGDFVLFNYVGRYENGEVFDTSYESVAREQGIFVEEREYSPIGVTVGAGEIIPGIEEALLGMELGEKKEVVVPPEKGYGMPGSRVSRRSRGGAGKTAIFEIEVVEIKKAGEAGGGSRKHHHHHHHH
Protocol: as §1, §2

[6] = target: T13, recombinant native IGF-2 (Peprotech Inc. Cat.#100-12) (human, UniProt P01344 25-91); assay: as above
T13 construct: The sentence on the bought protein names no species; also called insulin-like growth factor-2
Protocol: as §1, §2

[7] = target: T10, Thermus thermophilus wild type SlyD …; assay: as above
Protocol: as §1, §2

| Binder | reactivity [mE] [1] [mE] | Kd [2] [nM] | koff [2] [s⁻¹] | kon [2] [M⁻¹ s⁻¹] | t1/2-diss [2] [h] | binding result (SEQ ID NO 43) | binding result (SEQ ID NO 44) | binding result (SEQ ID NO 45) | binding result (SEQ ID NO 46) | binding result (SEQ ID NO 47) | binding result (SEQ ID NO 48) | binding result (SEQ ID NO 49) | binding result (SEQ ID NO 50) | reactivity [mE] [3] [mE] | binding result [4] | binding result [5] | binding result [6] | binding result [7] |
| --- | --- | --- | --- | --- | --- | --- | --- | --- | --- | --- | --- | --- | --- | --- | --- | --- | --- | --- |
| B1 | 2110 | 1.6 | 0.0015 | 920000 | 0.133 |  |  |  |  |  |  |  |  |  |  |  |  |  |
| B2 | 2430 | 0.01 | 2.1e-05 | 2e+06 | 9.33 | binds | binds | binds | binds | binds | binds | binds | binds | 32 | no binding (tested: 90 nM) | no binding (tested: 90 nM) | no binding (tested: 90 nM) | no binding (tested: 90 nM) |
